41 sequences from the nanobody polyreactivity screen of Harvey et al. (2022) can be followed below.

This series in a line: yeast display, Sf9 membrane polyspecificity reagent, FACS + sequencing; frameworks hold sequencing errors. The method, boiled down: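 Synthetic nanobody libraries on Saccharomyces cerevisiae BJ5465 were galactose-induced for 36–48 hours, stained 1 hour at 4 °C with 10% biotinylated, detergent-solubilized Sf9 membrane reagent and enriched on streptavidin microbeads. FACS then separated cells into low and high (top ~1%) gates by anti-HA (expression) and streptavidin (reagent binding) fluorescence. Genes were colony-PCR amplified, MiSeq 2 × 250 sequenced and CDR-length filtered. A clone's polyreactivity label is that of its gate of origin.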
“QVQLVESGGGIVQAGGSLRLSCAASGRTFNYYAMGWYRQAPGKEREWVAAISSSGGRTYYADSVKGRFTISRDNAKNTVYLQMNSLKPEDTAVYYCAATGGGYKHWFDYWGQGTQVTVSS”: the “polyreactivity (PSR sort gate)” value is reported as “low polyreactivity”.
For “QVQLVESGGGLVQAGGSLRLSCAASGFTFSTYAMGWYRQAPGKERELVSAISFSGGSTYYADSVKGRFTISRDNAKNTVYLQMNSLKPEDTAVYYCARAYTKYFEIYFIYALLYGHWGQGTQVTVSS”, the “polyreactivity (PSR sort gate)” value is reported as “low polyreactivity”.
With “QVQLVESGGGLVQAGGSLRLSCAASGGIFSYYAMGWYIQAPGKERELVAAISGSGGRTYYADSVKGRFTLSRDNAKNTVYLQMNSLKPEDTAVYYCAAYPVNRVDYRYDYWGQGTQVTVSS”, the “polyreactivity (PSR sort gate)” value was “high polyreactivity”.
As for “QVQHVESGGGLVQAGGSLRLSCAASGFIFRRNVMGWYRQAPGKERELVAAISNSGGSTYYADSVKGRFTISRDNAKNTVYLQMNSLKPEDTAVYYCAAVYSYWGRYFEYGYWGQGTKVTVSS”, the “polyreactivity (PSR sort gate)” value was “high polyreactivity”.
Consider “QVQLVESGGGLVQAGGSLRLSCAGSGRIFYVYAMGWYRQAPGKERELVAAISRGGSTNYADSVKGRFTISRDNAKNTVYLQMNSLKPEDTAVYYCAASSLPHYSFRHSYLYEYWGQGTQVTVSS”, for which the “polyreactivity (PSR sort gate)” value is listed as “low polyreactivity”.
In the case of “QVQLVESGGGLVQAGGSLRLSCAASGFIFNYYAMGWYRQAPGKERELVAISRGGSTNYADSVKGRFTISRDNAKNTVYLQMNSLKPEDTAVYYCAATKRYASGMYYWGQGTQVTVSS”, the “polyreactivity (PSR sort gate)” value is “high polyreactivity”.
In the case of “QVQLVESGGGLVQAGGSLRLSCAASGSTFVGYAMGWYRQAPGKERELVAAISRTGASTYYADSVKGRFTISRDNAKNTVYLQMNSLKPADTAVYYCAYYYSIYDYWGQGTQVTVSS” it was “high polyreactivity”.
“QVQLVESGGGLVQAGGSLRLSCAASGNIFESYGMGWYRQAPGKERELVATINTSSGSTYYADSVKGRFTISRDNAKNTVYLQMNSLKPEDTAVSSCAGEWYPYAWGYGYWGQGTQVTVSS”: the “polyreactivity (PSR sort gate)” value is listed as “low polyreactivity”.
In the case of “QVQLVESGGGLVQAGGSLRLSCAASGRIFTNYVMGWYRQAPGKERELVAAISKSGSRTYYADSVKGRFTISRDNAKNTVYLQMNSLKPEDTAVYYCAKVDTPGSQRYITPDEGPEYEYWGQGTQVTVSS” it was “high polyreactivity”; in that of “QVQLVESGGGLVQAGGSLRLSCAASGRNFVTNAMGWYRQAPGKERELVAAITRGGNTNYADSVKGRFTISRDNAKNTVYLQMNSLKPEDSAVYYCAADTSYYYVYGYFPGYYYWGQGTQVTVSS”, “low polyreactivity”; in that of “QVQLVESGGGLVQAGGSLRLSCAASGSTFPYNAKGWYRQAPGKERELVAAITTRGSTYYADSVKGRFTISRDNAKNTVYLQMNSLNPEESAVYYCANGPSLWYRSSFRGEGDYWGQGTQVTVSS”, “low polyreactivity”.
For the sequence “QVQLVESGGGLVQAGGSLRLSCAASGFIFSGYAMGWYRQAPGKERELVAAITWSGSNTFYADSVKGRFTISRDNPKNTVYLQMNSLKPEDTAVYYCNGVSKYIRSDYYYWGQGTQVTVSS”, the “polyreactivity (PSR sort gate)” value was “high polyreactivity”.
For the sequence “QVQLVESGGGLVQAGGSLRLICAASGSIFGSSAMGWYRQAPGKERSTYYADSVKGRFTISRDNAKNTVYLQMNSLKPEDTAVYYCAADTYGYQGSAGGHWGQGTQVTVSS”, the “polyreactivity (PSR sort gate)” value is reported as “low polyreactivity”.
Turning to “QVQLVESGGGLVQAGGSLRLSCAASGFIFQAYAMGWYRQAPGKERELVAAISSSGGSTYYADSVKGRFTISRDNAKNTVYLQMNSLKPEDTAVYYCAARSRRVSLIRDSYGYWGQGTQVTVSS”, the “polyreactivity (PSR sort gate)” value is given as “high polyreactivity”.
Consider “QVQLVESGGGLVQEGGSLRLSCAASGYIFKYYAMGWYRQAPGKERELVAAIRYSGGITYYADSVKGRFTISRDNAKNTVYLQMQSLKPEDTAVSYCAADYIITYRSGRREYVYWGQGTQVTVSS”, for which the “polyreactivity (PSR sort gate)” value is “high polyreactivity”.
As to “QVQLVESGGGLVQAGGSLRLSCAASGSTFFSYAMGWYRQAPGKDRELVAAISNSGGTTYYADSVKGRFTISRDNAKNTVYLQMNSLKPEDTAVYYSATRARYVGGYKYNYWGQGTQVTVSS”, the “polyreactivity (PSR sort gate)” value is listed as “high polyreactivity”.
Regarding “QVQLVESGGGLVQAGGRLRLSCAASGNTFGPYDMGWYRQAPGKERELVAGITSGGSTYYADSVKGRFTISRDNAKITVYLQMNSLKPEDTAVYYCAADYFLWVYWYDYWGQGTQVTVSS”, the “polyreactivity (PSR sort gate)” value is listed as “high polyreactivity”.
With “QVQLVESGGGLVQAGGSLRLSCAASGGTITRYAMGWYRQAPGKERELVAAISSSGGSTYYADSVKGRFTISRDNAKNTVYLQMNSLKPEDTAVYYCAAEGYTLWYWLEFEYWGQGTQVTVSS”, the “polyreactivity (PSR sort gate)” value is “high polyreactivity”.
On to “QFQLVESGGGLDQAGGSLRISCAASGSTFSYNAIGWYRQAPGKERELVAAITSRGGSTRYADSVKGRFTISRDNAKNTVYLQMNSLNPEDTAVYYCARPYSYYPYSTVNYWGQGTQVTVSS”, for which the “polyreactivity (PSR sort gate)” value is reported as “high polyreactivity”.
Regarding “QVQLVESGGGLVQAGGSLRLSCAASGFTFYYYAMGWYRQAPGKERELVAAISSTGGSTYYADSVKGRFTISRDNAKNTVYLQMNSLKPEDSAVYYCNAAGYRYPGDYDYWGQGTQVTVSS”, the “polyreactivity (PSR sort gate)” value is reported as “high polyreactivity”.
In the case of “QVQLVESGGGLDQAGGSLRLSCAASGSIFDDYAMGWYRQAPGKERELVAAISWSGGRTYYADSVKGRFTISRDNAKNTVYLQMNSLKPEDTAVYYCAATTGVRSRRYYYWGQGTQVTVSS”, the “polyreactivity (PSR sort gate)” value is reported as “low polyreactivity”.
With “QVQLVESGGGLVQAGGSLRLSCAASGYTFDWYAMGWYRQAPGKERELVAAISYSTGSTYYADSVKGRFTISRDNAKNTVYLQMHSLKPEDTAVYYCATRYWRSGYDWPYGSWGQGTQVTVSS”, the “polyreactivity (PSR sort gate)” value is on record as “high polyreactivity”.
As for “QVQLVESGGGLVQAGGSLRLSCAASGFTVEKNAMGWYRPAPGNERELVAAITKSGGSTYYADSVKGRFTISRDNAKNTVYLQMNSLKPEDTAVYFCNAPPWSRYYYDLLRHDYWGQGTQVTVSS”, the entry is “low polyreactivity”.
As for “QVQLVESGGGLVQAGGSLRLSCAASGSIFGINAMGWYRQAPGKERELVAAITWSGGSTFYADSVKGRFTISRDNAKNTVYLQMNSLKPEDTAVYYCAASYSRWYWLYTSDYWGQGTQVTVSS”, the entry is “high polyreactivity”; as for “QVQLVESGGGLVQAGGSLRLSCAASGITLYEYAMGWYRQAPGKERELVAAISTSGGRTRYADSVKGRFTISRDNAKNTVYLQMNSLKPEDTAVYYCAASGFVQISNPRRDYWGQGTQVTVSS”, “high polyreactivity”.
“QVQLVESGGGLVQAGGSLRLSCAASGSTFDYYTMGWYRQAPGKERELVAAISRSGGSTRYADSVKGRFTISRDNAKNTVYLQMNSLKPEYTAVYYCAAKLWRYYHYDYWGQGTQVTVSS”: the “polyreactivity (PSR sort gate)” value is reported as “low polyreactivity”.
As to “QVQLVESGGGLVQAGGSLRLSCAASGRIFGYNVMGWYRQAPGKERELVAAISYSGGSTYYADSVKGRFTISRDNAKNTVYLQMNSLKPEDTAVYYCNAGYRGSSKYNYWGQGTQVTVSS”, the “polyreactivity (PSR sort gate)” value was “high polyreactivity”.
Regarding “QLHLVESGGGLVQAGGSLRLSCAASGITFAGYALGWYRQAPGKERELVASITWGGGRTYYADSVKGRFTSSRDNAKNTVYLQMNSLKPEATAVYYCATRRRPQYNKYDYWGQGTQLTVSS”, the “polyreactivity (PSR sort gate)” value is recorded as “high polyreactivity”.
Consider “QVQLVESGGGLVQAGGRLRLSCAASGFTFNRNAMGWYRQAPGKERELVAAISDSGDNTYYADSVKGRFTISRDNAKNTVYLQMNSLKPEDTAVYYCATSFYGFSYHWFDYWGQGTQVTVSS”, for which the “polyreactivity (PSR sort gate)” value is listed as “low polyreactivity”.
Turning to “QVQLVESGGGLVQAGGSLRLSCAASGPIFKRNAMGWYRQAPGKERELVAAISGSGGRTNYADSVKGRFTISRDTAKNTVYLQMNSLKPEDTAVYYCAARANFFGWPKSYYYLGQGTQVTVSS”, the “polyreactivity (PSR sort gate)” value is “high polyreactivity”.
Turning to “QVQLVESGGGLVQAGGSLRLSCAASGLIFVGYAMGWYRQAPGKERELVAAITSGGSTKYADSVKGRFTISRDNAKNTVYLQMNSLKPEDTAVYYCAASGWRNWWSARNYYWGQGTLVTVSS”, the “polyreactivity (PSR sort gate)” value is given as “low polyreactivity”.
“QVQLVESGGGLVQAGGSLSLSCAASGFTFSRYAMGWYRQAPGKERELVAAISDDGGSTYYADSVKGRFTISRDNAKNTVYLQMNSLKPEDTAVYYCAARFYWSYGYWGQGTQVTVSS”: the “polyreactivity (PSR sort gate)” value is recorded as “high polyreactivity”.
As for “QVQLVESGGGLVQAGGSLRISCADSGSIFSLYAMGWYRPAAGKERELVAAIRRGGSTYYADSVKGRFTISRDNAKNTVYLQMNSLIPEDTAVYYCAADAYSGYSDYYWGQGTHVTVSS”, the entry is “low polyreactivity”.
On to “QVQLVESGGGLVQAGGSLRLSCAASGFIFYTYAMGWYRQAPGKERELVAAISWRGGRTYYADSVKGRFTISRDNAKNTVYLQMNSLKPEDTAVYYCNAVTSSGEYDYWGQGTQVTVSS”, for which the “polyreactivity (PSR sort gate)” value is reported as “high polyreactivity”.
For “QVQLVESGGGLVQAGGSLRLSCAASGIIFLHYAMGWYRQAPGKEREFVAAISWSGGSTHYADSVKGRFTISRDNAKNTVYLQMNSLKPEDTAVYYCAAYTFYSYDYWGQGTQVTVSS”, the “polyreactivity (PSR sort gate)” value is on record as “high polyreactivity”.
Consider “QVQLVESGGGLVQAGGSLRLSCAASGFNFRYYAMGWYRQAPGKERELVAAISWSGGTTYYADSVKGRFTISRDNAKNTVYLQMNSLKPEDTAVYYCAARVARFSVPYDYWGQGTQVTVSS”, for which the “polyreactivity (PSR sort gate)” value was “low polyreactivity”.
Turning to “QVQLQESGGGLVQAGGSLRLSCAVSGTIFFPLDMGWYRQAPGREREYVAAIAEGTSTYYADSVKGRFTISRDNAKNTVYPQMYSLNPEDTAVYYCAAYRSTPQQFHYWGQGTQVTVSS”, the “polyreactivity (PSR sort gate)” value is “high polyreactivity”.
As for “QVQLVESGGGLVQAGGSLRLSCAASGSIIDYNVMGWYRQAPGKEREFVAGISSTGGSTYYADSVKGRFSNSRDNAKHTVYLQMNSLKPEDTAVYYCAAYWNRAFRLDYWGQGTQVTVSS”, the “polyreactivity (PSR sort gate)” value was “high polyreactivity”.
Regarding “QVQLVESGGGLVQAGGSLRLSCAASGSIFDVNAMGWYRQAPGIERDLVAAISQRGTRTYYADSVKGRFTISRDNAKNTVYLQMNSLKPEDTAVYYCAARVPSVGNQSGYDYWGQGTQVTVSS”, the “polyreactivity (PSR sort gate)” value is given as “high polyreactivity”.
Take “QVQLVESGGGLVQAGGSLRLSCAASGFTFYPYAMGWYRQAPGKERELVASISSRGGSRTYYADSVKGRFTISRVNEKNTVYLQMNSLKTEDSAVYYCAATYVGLYRGYFTLTYYYWGQGTPVTVSS”: the “polyreactivity (PSR sort gate)” value was “high polyreactivity”.
“QVQLVESGGGLVQAGGSLRLSCAASGSTFYPTAMGWYRQAPGKERELVAAIRVRGGSTYYADSVKGRYTISRDNAKNTVYLKRNCLKPEDTAVYYCNADTFSSFGWGQGTQVTVSS”: the “polyreactivity (PSR sort gate)” value was “low polyreactivity”.
